Data from patent publication US20090176264A1 (ORTHO CLINICAL DIAGNOSTICS, published 2009).
Positions count from the first letter of the chain named.

T1: P126(AA): PlGF mutant #1 (human)
T1 chain: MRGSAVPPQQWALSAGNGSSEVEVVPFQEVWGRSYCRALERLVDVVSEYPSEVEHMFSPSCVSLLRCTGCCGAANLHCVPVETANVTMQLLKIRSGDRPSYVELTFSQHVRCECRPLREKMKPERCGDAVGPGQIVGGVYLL

T2: P126(DE): recombinant PlGF wild type (human)
T2 construct: also called unaltered PlGF
T2 chain: T1 chain with A73D, A74E

B1: P126(GAA): PlGF mutant #2 (ligand)
chain: T1 chain with C71G
B2: Full length sFlt (soluble fms-like tyrosine kinase 1, sFlt-1), Scios Inc. Lot# 9225-89 (receptor)
chain: SKLKDPELSLKGTQHIMQAGQTLHLQCRGEAAHKWSLPEMVSKESERLSITKSACGRNGKQFCSTLTLNTAQANHTGFYSCKYLAVPTSKKKETESAIYIFISDTGRPFVEMYSEIPEIIHMTEGRELVIPCRVTSPNITVTLKKFPLDTLIPDGKRIIWDSRKGFIISNATYKEIGLLTCEATVNGHLYKTNYLTHRQTNTIIDVQISTPRPVKLLRGHTLVLNCTATTPLNTRVQMTWSYPDEKNKRASVRRRIDQSNSHANIFYSVLTIDKMQNKDKGLYTCRVRSGPSFKSVNTSVHIYDKAFITVKHRKQQVLETVAGKRSYRLSMKVKAFPSPEVVWLKDGLPATEKSARYLTRGYSLIIKDVTEEDAGNYTILLSIKQSNVFKNLTATLIVNVKPQIYEKAVSSFPDPALYPLGSRQILTCTAYGIPQPTIKWFWHPCNHNHSEARCDFCSNNEESFILDADSNMGNRIESITQRMAIIEGKNKMASTLVVADSRISGIYICIASNKVGTVGRNISFYITDVPNGFHVNLEKMPTEGEDLKLSCTVNKFLYRDVTWILLRTVNNRTMHYSISKQKMAITKEHSITLNLTIMNVSLQDSGTYACRARNVYTGEEILQKKEITIRGEHCNKKAVFSRISKFKSTRNDCTTQSNVKH
notes: also called recombinant sFlt

What was measured:
[1] = target: B2; assay: ELISA, sFlt coated 0.5 ug/mL, PlGF in solution, detected with Rat-4
Procedure: High-binding microtiter plate was coated with recombinant sFlt at 0.5 ug/mL and blocked with BSA/PBS
Standard ELISA procedure consists of 1st plate incubation with diluted P126(DE) or P126(AA) or P126(GAA) in casein/PBS at various concentration, 2nd plate incubation with monoclonal anti-PlGF Rat-4 solution at 0.1 ug/mL, 3rd plate incubation with HRP conjugated donkey anti-Rat IgG at 1:4K dilution in casein/PBS and 4th plate incubation with 100 uL OPD substrate development for 25 C/30 min. 1st, 2nd and 3rd plate incubation step is at 37 C/15-20 min/shake; 6 times plate washing between each step. 25 uL stop solution after 4th incubation and record OD at 492 nm.

[2] = target: B1; assay: ELISA, coated PlGF, sFlt at 1800 ng/mL, detected with RD-1 + RD-2 anti-sFlt
P126(AA): PlGF mutant #1 [3] = target: T1, P126(AA): PlGF mutant #1; assay: as above
[4] = target: T2, P126(DE): recombinant PlGF wild type; assay: as above
[5] = target: B1; assay: ELISA, coated PlGF, sFlt at 66.67 ng/mL, detected with RD-1 + RD-2 anti-sFlt
P126(AA): PlGF mutant #1 [6] = target: T1, P126(AA): PlGF mutant #1; assay: as above
[7] = target: T2, P126(DE): recombinant PlGF wild type; assay: as above
[8] = target: B1; assay: ELISA, coated PlGF, sFlt at 200 ng/mL, detected with RD-1 + RD-2 anti-sFlt
P126(AA): PlGF mutant #1 [9] = target: T1, P126(AA): PlGF mutant #1; assay: as above
[10] = target: T2, P126(DE): recombinant PlGF wild type; assay: as above
[11] = target: B1; assay: ELISA, coated PlGF, sFlt at 600 ng/mL, detected with RD-1 + RD-2 anti-sFlt
P126(AA): PlGF mutant #1 [12] = target: T1, P126(AA): PlGF mutant #1; assay: as above
[13] = target: T2, P126(DE): recombinant PlGF wild type; assay: as above

binding result [1] | OD at 492 nm [2] | OD at 492 nm (P126(AA): PlGF mutant #1 [3]) | OD at 492 nm [4] | OD at 492 nm [5] | OD at 492 nm (P126(AA): PlGF mutant #1 [6]) | OD at 492 nm [7] | OD at 492 nm [8] | OD at 492 nm (P126(AA): PlGF mutant #1 [9]) | OD at 492 nm [10] | OD at 492 nm [11] | OD at 492 nm (P126(AA): PlGF mutant #1 [12]) | OD at 492 nm [13] | Binder
no binding (tested: 1000 ng/mL) |  |  |  |  |  |  |  |  |  |  |  |  | B1
 | 0.15 OD | 0.21 OD | > 3 OD | 0.088 OD | 0.143 OD | 0.347 OD | 0.095 OD | 0.115 OD | 0.833 OD | 0.101 OD | 0.182 OD | 1.83 OD | B2
